Residue numbers refer to the chain shown, from its start. Read-outs that look alike come from different tables or passages of the source. Marks after values point to notes of the source that are not given here. Values belong to the molecule of their own block, whether it stands above or below them. Ends that are not written are not given here.
Tests used:
[1] = tested on: prediabetic human macrophage; assay: Binding of tritiated hexapeptides to prediabetic PB monocyte/macrophages; settings: for CPM bound: +Glucose, NaN3, Captopril, Benzylsuccinate, Elastatinal
Text: (§1) Using the method described by M'Hamiel Jaziri et al (1992) the human macrophage binding of the bovine peptides Pro-63 to Asn-68 (from the β-casein A1 and A2 variant sequences) were studied and compared with the binding of the peptide Val-54 Tyr-59 from human β-peptide to each of a normal human macrophage and a prediabetic human macrophage.

normal human macrophage = assay: Binding of tritiated hexapeptides to normal PB monocyte/macrophages; settings: for CPM bound: +Glucose, NaN3, Captopril, Benzylsuccinate, Elastatinal
Text: as §1

human macrophage = settings: cited from earlier work
murine macrophages = settings: cited from earlier work
[2] = biological target: binding site on normal human PB monocyte/macrophages (human); assay: binding of tritiated hexapeptide to PB monocyte/macrophages
[3] = biological target: binding site on prediabetic human PB monocyte/macrophages (human); assay: as above
[4] = biological target: binding site on normal human PB monocyte/macrophages (human); assay: binding of tritiated hexapeptide to PB monocyte/macrophages; reference bovine A1 peptide
[5] = biological target: binding site on prediabetic human PB monocyte/macrophages (human); assay: as above
NOD mice = assay: Diabetes incidence in NOD mice fed β-casein A1/A2 variants, whey or Bos indicus casein as 10% additions to Prosobee; format: in vivo, mouse; settings: for Number of Animals Developing Diabetes by 250 days / Percentage of animals developing diabetes by 250 days: 10% addition to Prosobee infant formula from weaning
Text: Similar groups of mice were fed a diet of the soy infant formula Prosobee™ and 10% W/W of: […]
d) Bos indicus casein, or
e) a 50/50 mixture of β-casein A1 variant/A2 variant.
The β-casein A1 variant precipitated diabetes in […] cases, the A2 variants in no cases and the A1/A2 mixture in 4 of 20 cases. The result mid-way between the […] results is consistent with there being no interaction between A1 and A2.
Lactic casein was manufactured in the New Zealand Dairy Research Institute Pilot Plant from the β-casein A1A1 and A2A2 phenotype bulk milks using methods essentially identical to those used in a standard New Zealand commercial lactic casein manufacturing dairy factory (see Muller, 1986). These caseins together with other constituents were then used in the feeding trials as described in Examples 2 and 3.

Molecule: Pro-Gly-Pro-Ile-His-Asn (PGPIHN; also: tritium label) [Bovine A1]
phagocytic activity of murine macrophages (murine macrophages): stimulate the phagocytic activity
CPM bound ([1]; PREDIABETIC PBM (N = 3)): 4500** CPM
binding to prediabetic macrophages [1]: bind specifically
CPM bound (normal human macrophage; NORMAL PBM (N = 3)): 2220** CPM
binding to normal human macrophages (normal human macrophage): bind specifically

Molecule: PGPIPN (also: tritiated) [bovine β-casein A2 hexapeptide Pro-63 to Asn-68]
CPM [2]: 2900 CPM
CPM [3]: 2750 CPM

Molecule: PGPIHN (also: tritiated) [bovine β-casein A1 hexapeptide Pro-63 to Asn-68 (Pro-Gly-Pro-Ile-His-Asn)]
CPM [2]: 2220 CPM
CPM [3]: 4500 CPM

B1: β-casein A1 variant: bovine β-casein A1 variant (SEQ ID NO: 2); casein made from milk of β-casein A1A1 phenotype cows (protein)
chain: RELEELNVPGEIVESLSSSEESITRIDKKIEKFQSEEQQQTEDELQDKIHPFAQTQSLVYPFPGPIHNSLPQNIPPLTQTPVVVPPFLQPEVMGVSKVKEAMAPKHKEMPFPKYPVQPFTESQSLTLTDVENLHLPPLLLQSWMHQPHQPLPPTVMFPPQSVLSLSQSKVLPVPEKAVPYPQRDMPIQAFLLYQQPVLGPVRGPFPIIV
diabetogenic activity (words) (NOD mice): diabetogenic
Number of Animals Developing Diabetes by 250 days (NOD mice): 9
Percentage of animals developing diabetes by 250 days (NOD mice): 45%
diabetogenic activity (words) (NOD mice; listed as A1 variant): does have diabetogenic activity

B2: β-casein A2 variant: bovine β-casein A2 variant; casein made from milk of β-casein A2A2 phenotype cows (protein)
chain: B1 chain with H67P
diabetogenic activity (words) (NOD mice): is not
Number of Animals Developing Diabetes by 250 days (NOD mice): 0
Percentage of animals developing diabetes by 250 days (NOD mice): 0%
Number of Animals Developing Diabetes by 250 days (NOD mice; listed as A2 variants): no cases
diabetogenic activity (words) (NOD mice; listed as A2 variant): do not show diabetogenic activity

Now from value to molecule, other results behind:

CPM bound ([1]; PREDIABETIC PBM (N = 3)): 2750 CPM
CPM bound (normal human macrophage; NORMAL PBM (N = 3)): 2900 CPM
Molecule: Bovine A2: tritiated bovine hexapeptide Pro-63 to Asn-68 from the β-casein A2 variant sequence (proline at position 67) (PGPIPN; also: tritiated)

Ratio */** (Human / Bovine A1 CPM) ([1]; PREDIABETIC PBM (N = 3)): 0.31
CPM bound ([1]; PREDIABETIC PBM (N = 3)): 1400* CPM
binding to prediabetic macrophages [1]: bind specifically
Ratio */** (Human / Bovine A1 CPM) (normal human macrophage; NORMAL PBM (N = 3)): 1.2
CPM bound (normal human macrophage; NORMAL PBM (N = 3)): 2750* CPM
binding to normal human macrophages (normal human macrophage): bind specifically
Molecule: Human: tritiated hexapeptide Val-54 to Tyr-59 from human β-casein (VEPIPY; also: tritiated) [reference compound]
binding site on the human macrophage (human macrophage): specific binding site

CPM [2]: 2750 CPM
CPM [3]: 1400 CPM
Ratio */** (human CPM to bovine A1 CPM) [4]: 1.2
Ratio */** (human CPM to bovine A1 CPM) [5]: 0.31
Molecule: peptide Val-54 to Tyr-59 from human β-casein (from UniProt P05814 69-74)

From US7157616B2, “Method of selecting non-diabetogenic milk or milk products and milk or milk products so selected” (priority 1994, dated 2007)
